This series in a line: soluble on expression in E. coli; label from the status in PepcDB or PDB records.
Turning to “MIENAKENSQRVELKDRIIETASEAFTTHGIKSITMDDIAASLGISKRTLYEVFQDKESLLTQCILKRQEEMNAFLAETLANSKNVLEVILVCYQRSIETFHRTNKRFFEDIKKYPKVHSLLKNYRERDSDSTIEFFKMGIKQGIFRDDVNFAIVNLLVHEQLDLLMNTDICNKYSFLEVYEAIMFTYIRGISTEKGAKVLEDFITEYRKQRIH”, the “soluble on expression in E. coli” value is “not soluble”.

For the sequence “MIERYSREEMSNIWTDQNRYEAWLEVEILACEAWSELGHIPKADVQKIRQNAKVNVERAQEIEQETRHDVVAFTRQVSETLGEERKWVHYGLTSTDVVDTALSFVIKQANDIIEKDLERFIDVLAEKAKNYKYTLMMGRTHGVHAEPTTFGVKMALWYTEMQRNLQRFKQVREEIEVGKMSGAVGTFANIPPEIESYVCKHLGIGTAPVSTQTLQRDRHAYYIATLALIATSLEKFAVEIRNLQKTETREVEEAFAKGQKGSSAMPHKRNPIGSENITGISRVIRGYITTAYENVPLWHERDISHSSAERIMLPDVTIALDYALNRFTNIVDRLTVFEDNMRNNIDKTFGLIFSQRVLLALINKGMVREEAYDKVQPKAMISWETKTPFRELIEQDESITSVLTKEELDECFDPKHHLNQVDTIFERAGLA”, the “soluble on expression in E. coli” value is “soluble”.

On to “MIETKRQQERVILLGVELQTTEHFDMSMTELANLAKTAGVKVMASFSQKRERYDSKTFIGSGKLDEIKAIVEADEIDAVIVNNRLTARQNANLEAVLEVKVIDRMQLILDIFAMRARSHEGKLQVHLAQLKYMLPRLVGQGIMLSRQAGGIGSRGPGESQLELNRRSIRHQIADIERQLTQVEKNRQTIRDRRVGSDTFKIGLIGYTNAGKSTIMNLLTDDSHYEANELFATLDATTKQLYLENQFQATLTDTVGFIQDLPTELVAAFKSTLEESKYVDLLLHVIDASDPNHSEQEKVVLNLLKELDMLNIPRLAIYNKVDIAEQFTATAFPNIRISARSKDSKILLRRLIIDQIRDQFVPFRIKVHQDKAYKLYDLNRVALLDHYTFDQEIEDISGYISPKQQWRLDDFYELEHHHHHH”, for which the “soluble on expression in E. coli” value is given as “soluble”.

Take “MIEVKHLKTLQALRNCGSLAAAAATLHQTQSALSHQFSDLEQRLGFRLFVRKSQPLRFTPQGEILLQLANQVLPQISQALQACNEPQQTRLRIAIECHSCIQWLTPALENFHKNWPQVEMDFKSGVTFDPQPALQQGELDLVMTSDILPRSGLHYSPMFDYEVRLVLAPDHPLAAKTRITPEDLASETLLIYPVQRSRLDVWRHFLQPAGVSPSLKSVDNTLLLIQMVAARMGIAALPHWVVESFERQGLVVTKTLGEGLWSRLYAAVRDGEQRQPVTEAFIRSARNHACDHLPFVKSAERPTYDAPTVRPGSPARL”: the “soluble on expression in E. coli” value is on record as “soluble”.

For the sequence “MIFENRLALSAMAGVNNAEFCRKQKASLVILGGFNADRRALEAAEKAVKRGRKEFLFGIDGIEGEIKKLGRRKFAVNVRSSSLEGYLNVAELVAEFEGIIEINAHCRQPEFVEIGCGEWLLFNHERLVEIVSKTSRIAPTFVKIRGGHKLDYEKIARKLFDAGCLAIHVDAMIPGGGCDFSLIERISRIGNVIGNNSFVDIESGERIIMAGAKMASAARAVLRDENFFEKMLRSPLLSQPVELSCGRFRLEHHHHHH”, the “soluble on expression in E. coli” value was “soluble”.

For the sequence “MIFRAKANKALDRAEDPRETLDYSYQKQLELLQKVRRGVADVATSRKRLELQLNQLQSQSGKLEDQGRKALALGREDLAREALSRRAALQQQVTDLETQHATLQGEEEKLTLAAQRLQAKVDAFRTKKETIKATYTAAQAQTRIGEAFSGISEEMGDVGLAIQRAEDKTAQLQARAGAIDELLASGALDDQSGMHKDDIQAELDRLSGGTDVELELQRMKAELAGGSTSDRQAIEGGQGQGEASSQSQQPQDTPRFDKQLEHHHHHH”, the “soluble on expression in E. coli” value is “not soluble”.

“MIGGRLKSLRGKRTQEEIASHIGVSRARYSHYENGRSEPDYDTLQKLADYFQVTTDYLLTGKDKKSDDDMFSDPDLQLAYRDMQDFSPESKQQAIEFINYLKEKEKNRKPKNK”: the “soluble on expression in E. coli” value is on record as “not soluble”.

Turning to “MIGILKKVFDVNQRQIKRMQKTVEQIDALESSIKPLTDEQLKGKTLEFKERLTKGETVDDLLPEAFAVVREAATRVLGMRPYGVQLMGGIALHEGNISEMKTGEGKTLTSTLPVYLNALTGKGVHVVTVNEYLAQRDANEMGQLHEFLGLTVGINLNSMSREEKQEAYAADITYSTNNELGFDYLRDNMVLYKEQCVQRPLHFAIIDEVDSILVDEARTPLIISGQAQKSTELYMFANAFVRTLENEKDYSFDVKTKNVMLTEDGITKAEKAFHIENLFDLKHVALLHHINQALRAHVVMHRDTDYVVQEGEIVIVDQFTGRLMKGRRYSEGLHQAIEAKEGVEIQNESMTLATITFQNYFRMYEKLSGMTGTAKTEEEEFRNIYNMNVIVIPTNKPIIRDDRADLIFKSMKGKFNAVVEDIVNRHKQGQPVLVGTVAIETSELISKMLTRKGVRHNILNAKNHAREADIIAEAGMKGAVTIATNMAGRGTDIKLGDDIKNIGLAVIGTERHESRRIDNQLRGRAGRQGDPGVTQFYLSMEDELMRRFGSDNMKAMMDRLGMDDSQPIESKMVSRAVESAQKRVEGNNYDARKQLLQYDDVLRQQREVIYKQRQEVMESENLRGIIEGMMKSTVERAVALHTQEEIEEDWNIKGLVDYLNTNLLQEGDVKEEELRRLAPEEMSEPIIAKLIERYNDKEKLMPEEQMREFEKVVVFRVVDTKWTEHIDAMDHLREGIHLRAYGQIDPLREYQMEGFAMFESMIASIEEEISRYIMKAEIEQNLERQEVVQGEAVHPSSDGEEAKKKPVVKGDQVGRNDLCKCGSGKKYKNCCGIGK”, the “soluble on expression in E. coli” value is on record as “not soluble”.

In the case of “MIGVVGGGIAGLSAAYRLQQRGHEVRVFEASEDLGGLAATYETAGDPIEKFYHHLSKSEETIVDLAEELGLGDAVEWHIGENAYYVDGVVHPMDKPWEILSYPHLSLYDTFRLGMLVLDIDVRGGVPSFDTYERLEDFEGVPIEEFVVDHTTRGVYENFFEPLLDAKFGDRKDDVSAAWLLGRVKFRGERDILNGEILGYFDGGFGRLLDALVDAVGRDNIATGTRVSDIDTSGGTVSSLTATDGTETTVHDVDSVVVATMPNVLEALTGYTCDIDFQGTVCSVISMDEPLLDTYWLNIADDAPFGALIEHTNFVSAERYGGEHLLYVARYIQDESEAIWQQSDDEVAETWLQGIESLFPDFDRDAVNWIRTGRNPRTAPVYERGYLDMVIPYDLSDAVADGLYYAGMASRAQYPERSLNGGIVAGFECADRIARDPSAATKTDESPLSEAQRLEHHHHHH”, the “soluble on expression in E. coli” value was “not soluble”.

As to “MIHKRTNEGDLVIESFADKRCKDLLEGNPPKGFPTTLVRIVQRKLFMLDKAVDLKDLRSPPGNRLEALKGERKGQYSIRINDQFRICFEWRSNGAYEVEIVDYH”, the “soluble on expression in E. coli” value is reported as “not soluble”.

On to “MIHSNEPLPYAIEYAKSGRSTCKTCKKNIALDQLRMSMNRPSTFFDGNMDSWFHYNCFWNKMIRGRDDINISSIRGVDWLRWEDQEKLRQEIQHFKTASPPTLTPLFSTTTVILSTIKTEKSLSNRGKCGKCGQNFERGEIKAHNKGKANHFECFLQEFDKISGTVEDIPGWADYEANFKIKATGEYVEALAAKGGSTEPATPASASPTPPEAETPVLSAEGSPESSNKRPASAEIIEIDGEGNPDENDFAKKRRMKKEARLMEVQKKRMKKQSDLLWEYRQIFERMPYTDNISILRENEQDIPEGHDRTAQDVFHEKTKNDWIYRKHFRKMPGMFSYVETDYSEFVGTNNGHKKKITPGSKITPGSKTLLPKSVKEVVMSIFDVENMKSALKSFEIDVNKMPLGRLSHNQINLAFEVLNDISDLLVKLPIDASKILDFSNKFYTIIPHNFGMRVPEPIDSFHKIKEKNNMLNALLDIKFAYDQISGGDVPASTSLSIDPVDINYRKLKCIMEPLQQGCDDWNMIHQYLKNTHGATHDLKVELIDILKVNRDNESSKFKRHIGNRRLLWHGSGKMNFAGILGQGLRIAPPEAPVSGYMFGKGVYFADMFSKSFFYCRANAKEEAYLLLCDVALGNVQQLMASKNVSRQTLPAGFQSVQGVGRQCPREIGSYKNPDGYTVPLGLTYMQLQGKQNVDYHLLYNEFIVYDVDQIQLKYLVRVKMHHARHL”, for which the “soluble on expression in E. coli” value is “not soluble”.

In the case of “MIHSSVKRWGNSPAVRIPATLMQALNLNIDDEVKIDLVDGKLIIEPVRKEPVFTLAELVNDITPENLHENIDWGEPKDKEVW”, the “soluble on expression in E. coli” value was “soluble”.

Consider “MIIEFEEKLLDLIDAQVVNASSDELFAGGYLRGHISLSAAQCEEEGITELDVLKQRIEQSLEAARSELSPADRAIVAELWQQLAAQA”, for which the “soluble on expression in E. coli” value was “not soluble”.

For “MIIEKKIKNYTVFVKKDGEKYIEIFKDFLSYNHQVIKVFRNIEDTKVVLINTDYGKYILKVFSPKVKNTERFFKSLVKGDYYEKLFHQTDRVRREGFAALNDFYLLAEIKTLRYVKTYVMIIEYIEGIELVDMPEISDEVRGKIKQSIYSLHQHGMVSGDPHKGNFILQGNEIRIIDLSGKRPSRQRKAKDRIDLERHYGIKNNVRDIGFYLLIYKKKLRNFLRRIKGKEKRLEHHHHHH”, the “soluble on expression in E. coli” value is recorded as “not soluble”.

Turning to “MIIFSGGTGTPKLLDGLKEILPEEELTVVVNTAEDLWVSGNLISPDLDTVLYLFSDQIDRKRWWGIENDTFGTYERMKELGIEEGLKLGDRDRATHIIRSNIIRDGASLTDSTVKLSSLFGIKANILPMSDDPVSTYIETAEGIMHFQDFWIGKRGEPDVRGVDIRGVSEASISPKVLEAFEKEENILIGPSNPITSIGPIISLPGMRELLKKKKVVAVSPIIGNAPVSGPAGKLMPACGIEVSSMGVAEYYQDFLDVFVFDERDRADEFAFERLGCHASRADTLMTSTEKSKELAEIVVQAFLEHHHHHH”, the “soluble on expression in E. coli” value was “soluble”.

Turning to “MIIKRNDMAPSVKAGDAILFYRLSQTYKVEEAVVYEDSKTSITKVGRIIAQAGDEVDLTEQGELKINGHIQNEGLTFIKSREANYPYRIADNSYLILNDYYSQESENYLQDAIAKDAIKGTINTLIRLRNH”, the “soluble on expression in E. coli” value is listed as “not soluble”.

Take “MIILQANKIERSFAGEVLFDNINLQVDERDRIALVGKNGAGKSTLLKILVGEEEPTSGEINKKKDISLSYLAQDSRFESENTIYDEMLHVFNDLRRTERQLRQMELEMGEKSGEDLDKLMSDYDRLSENFRQAGGFTYEADIRAILNGFKFDESMWQMKIAELSGGQNTRLALAKMLLEKPNLLVLDEPTNHLDIETIAWLENYLVNYSGALIIVSHDRYFLDKVATITLDLTKHSLDRYVGNYSRFVELKEQKLVTEAKNYEKQQKEIAALEDFVNRNLVRASTTKRAQSRRKQLEKMERLDKPEAGKKSANMTFQSEKTSGNVVLTVENAAVGYDGEVLSQPINLDLRKMNAVAIVGPNGIGKSTFIKSIVDQIPFIKGEKRFGANVEVGYYDQTQSKLTPSNTVLDELWNDFKLTPEVEIRNRLGAFLFSGDDVKKSVGMLSGGEKARLLLAKLSMENNNFLILDEPTNHLDIDSKEVLENALIDFDGTLLFVSHDRYFINRVATHVLELSENGSTLYLGDYDYYVEKKATAEMSQTEEASTSNQAKEASPVNDYQAQKESQKEVRKLMRQIESLEAEIEELESQSQAISEQMLETNDADKLMELQAELDKISHRQEEAMLEWEELSEQV”: the “soluble on expression in E. coli” value is “not soluble”.

In the case of “MIILYDFLQESSVMPRSKNDSKLKKKSALQSKFKEQQLNHGSKEHKSKFKFSQRKAKKKGPGMTHLPGNIYTLFTPVNGPKSKDEWIDTSKIMLDLHIDNMSSSDYIPSAIDRTDLVMVQSVHLLRKTGGRGLFAREDIPKGTCIGIYTGEVYSEQEFEQYLKEHVGSDKSYAMYVGGRVIDAARKGNLTRYINFSDSQDNAEFVETTLNRKKVAKVITTKNIKAGQQLLINYNTYEEQASRYYYFLNPGDGWLSAQEFYQTYQSQYRLEQMPYNLEGFDLKAGDRVLMTQIGRIILANYSLAKEQELNASDIDLPFLKVGSDEKILDFDEADTFTPLMAACYLGQVENVKWLIEHGANIDQQQSHSGHCPLSLTLKGYSLAKDTQKYIDIIQLLIKNQVNLLVHDRSDKTFLHNAALVLNNLDFQSVVKFLIGQNPIDINEYFTYIDENDFDIVMHCYNNKLFDKALVLLAFYPDYFKRNYMSDNEGHNQFNINAFRKAIKDFNSNERSILLMQLRESGLHLPEDLLEQLGIMDSSITLESKFF”, the “soluble on expression in E. coli” value was “not soluble”.

For the origin of these results see the DeepSol protein solubility set.
